Consider 3 molecules from article PMC10837206, “R-Spondin 2 governs Xenopus left-right body axis formation by establishing an FGF signaling gradient” (Nature Communications, 2024).

Experiment [1] concerns the target T1, recombinant human FGFR4 Fc Chimera (human, UniProt P22455 22-369).
T1 construct: Fibroblast Growth Factor receptor 4 (FGFR4), human, extracellular domain; also called FGFR4^ECD; extracellular domain (ECD) of FGFR4; source: bought: R&D systems 685-FR and BioLegend 752502
T1 sequence (looked up): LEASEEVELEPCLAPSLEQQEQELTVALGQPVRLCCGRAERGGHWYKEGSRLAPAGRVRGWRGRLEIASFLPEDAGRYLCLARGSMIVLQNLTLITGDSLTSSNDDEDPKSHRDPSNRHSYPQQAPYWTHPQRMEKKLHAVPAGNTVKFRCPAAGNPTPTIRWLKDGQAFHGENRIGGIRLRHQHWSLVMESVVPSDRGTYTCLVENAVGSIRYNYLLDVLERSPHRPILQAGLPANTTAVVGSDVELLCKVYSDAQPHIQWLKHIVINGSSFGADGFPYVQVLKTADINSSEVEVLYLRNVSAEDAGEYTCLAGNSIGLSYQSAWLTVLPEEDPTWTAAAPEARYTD
The experiment is described as follows: in vitro binding assay (solid phase, bound AP activity); titration of RSPO2-AP on coated FGFR4 Fc Chimera (R&D systems 685-FR); Scatchard analysis. Particulars: one partner purified.

Experiment [2] concerns the target T1, recombinant human FGFR4 Fc Chimera. The experiment is described as follows: in vitro competitive binding assay (solid phase, bound AP activity); as a8; the peptide (100 uM) against coated FGFR4 Fc Chimera. Particulars: both partners purified.

B1: human RSPO2-AP (alkaline-phosphatase-tagged R-Spondin 2 fusion protein) (ligand, UniProt Q6UXX9 22-243, looked up)
chain: QGNRWRRSKRASYVSNPICKGCLSCSKDNGCSRCQQKLFFFLRREGMRQYGECLHSCPSGYYGHRAPDMNRCARCRIENCDSCFSKDFCTKCKVGFYLHRGRCFDECPDGFAPLEETMECVEGCEVGHWSEWGTCSRNNRTCGFKWGLETRTRQIVKKPVKDTILCPTIAESRRCKMTMRHCPGGKRTPKAKEKRNKKKKRKLIERAQEQHSVFLATDRANQ
notes: R-Spondin 2 (RSPO2), human; also called R2; source: HEK293T, transfected, conditioned medium
Take B1: the equilibrium dissociation constant (Kd) in experiment [1] is 1.5 nM.

B2: KC peptide (10-mer derived from the human RSPO2 TSP1 domain) (peptide)
peptide: KKPVKDTILC
notes: stretch of the TSP1 domain of human R-Spondin 2 (RSPO2)
Take B2: the binding result in experiment [2] is reported as “binds”.

B3: TK peptide (10-mer derived from the human RSPO2 TSP1 domain) (peptide)
peptide: TRQIVKKPVK
notes: as for B2
In the case of B3, in experiment [2], the binding result is on record as “binds”.

A word on the Kd: it is the equilibrium constant for the complex coming apart.
